Experimental data: US20080014191A1

Molecular target: wild-type cystic fibrosis transmembrane conductance regulator (CFTR) (Homo sapiens (Human)) (UniProt P13569)
Test: CFTR co-IP, MudPIT MS; BHK wt

wild-type cystic fibrosis transmembrane conductance regulator (CFTR) (Homo sapiens (Human)), sequence (P13569 whole entry): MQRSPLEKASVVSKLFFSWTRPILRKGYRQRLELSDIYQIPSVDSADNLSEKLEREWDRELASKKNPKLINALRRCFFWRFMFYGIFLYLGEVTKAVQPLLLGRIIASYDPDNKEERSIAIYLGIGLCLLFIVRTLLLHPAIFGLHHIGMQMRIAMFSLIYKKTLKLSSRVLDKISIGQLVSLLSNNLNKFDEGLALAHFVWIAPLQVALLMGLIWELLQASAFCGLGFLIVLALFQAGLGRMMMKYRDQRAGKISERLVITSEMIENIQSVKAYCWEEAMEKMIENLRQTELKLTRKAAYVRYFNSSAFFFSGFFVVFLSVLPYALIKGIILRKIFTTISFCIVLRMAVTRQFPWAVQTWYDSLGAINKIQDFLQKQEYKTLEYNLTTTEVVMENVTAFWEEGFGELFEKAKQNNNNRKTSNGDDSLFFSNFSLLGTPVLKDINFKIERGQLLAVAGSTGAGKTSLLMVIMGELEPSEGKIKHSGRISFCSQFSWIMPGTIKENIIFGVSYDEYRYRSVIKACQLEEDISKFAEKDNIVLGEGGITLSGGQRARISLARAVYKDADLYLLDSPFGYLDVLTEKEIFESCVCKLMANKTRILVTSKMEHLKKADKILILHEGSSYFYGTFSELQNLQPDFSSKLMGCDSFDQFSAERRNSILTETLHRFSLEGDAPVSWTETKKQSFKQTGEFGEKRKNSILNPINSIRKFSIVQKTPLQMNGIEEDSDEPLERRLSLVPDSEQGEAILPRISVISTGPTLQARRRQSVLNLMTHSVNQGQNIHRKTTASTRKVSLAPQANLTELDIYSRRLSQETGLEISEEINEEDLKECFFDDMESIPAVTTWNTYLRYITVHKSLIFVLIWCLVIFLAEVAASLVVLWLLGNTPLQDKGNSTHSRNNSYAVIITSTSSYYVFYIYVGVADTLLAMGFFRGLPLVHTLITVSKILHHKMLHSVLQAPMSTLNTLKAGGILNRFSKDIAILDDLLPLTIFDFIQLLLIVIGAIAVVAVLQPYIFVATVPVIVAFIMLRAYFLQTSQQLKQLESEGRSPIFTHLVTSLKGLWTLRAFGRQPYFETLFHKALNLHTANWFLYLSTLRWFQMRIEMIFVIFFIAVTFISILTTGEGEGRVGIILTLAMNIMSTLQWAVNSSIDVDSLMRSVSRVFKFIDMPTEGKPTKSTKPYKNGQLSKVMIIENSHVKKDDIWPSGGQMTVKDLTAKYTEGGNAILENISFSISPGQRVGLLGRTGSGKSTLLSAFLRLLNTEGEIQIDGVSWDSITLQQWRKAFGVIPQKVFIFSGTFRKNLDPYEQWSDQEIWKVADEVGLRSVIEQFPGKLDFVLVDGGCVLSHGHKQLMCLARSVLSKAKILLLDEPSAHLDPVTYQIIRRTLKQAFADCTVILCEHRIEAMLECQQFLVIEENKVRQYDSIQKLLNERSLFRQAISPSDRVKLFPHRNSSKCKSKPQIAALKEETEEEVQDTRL

% sequence coverage: 10%
total spectra: 7 spectra
unique spectra: 4 spectra
B1: Calnexin (protein, UniProt P27824 21-592, looked up)
chain: HDGHDDDVIDIEDDLDDVIEEVEDSKPDTTAPPSSPKVTYKAPVPTGEVYFADSFDRGTLSGWILSKAKKDDTDDEIAKYDGKWEVEEMKESKLPGDKGLVLMSRAKHHAISAKLNKPFLFDTKPLIVQYEVNFQNGIECGGAYVKLLSKTPELNLDQFHDKTPYTIMFGPDKCGEDYKLHFIFRHKNPKTGIYEEKHAKRPDADLKTYFTDKKTHLYTLILNPDNSFEILVDQSVVNSGNLLNDMTPPVNPSREIEDPEDRKPEDWDERPKIPDPEAVKPDDWDEDAPAKIPDEEATKPEGWLDDEPEYVPDPDAEKPEDWDEDMDGEWEAPQIANPRCESAPGCGVWQRPVIDNPNYKGKWKPPMIDNPSYQGIWKPRKIPNPDFFEDLEPFRMTPFSAIGLELWSMTSDIFFDNFIICADRRIVDDWANDGWGLKKAADGAAEPGVVGQMIEAAEERPWLWVVYILTVALPVFLVILFCCSGKKQTSGMEYKKTDAPQPDVKEEEEEKEEEKDKGDEEEEGEEKLEEKQKSDAEEDGGTVSQEEEDRKPKAEEDEILNRSPRNRKPRRE
